Measured values as given in KR20190132616A (dated 2019).

T1: 재조합 hAng-2 (C-His, R&D Systems) (human, UniProt O15123 19-496)
T1 construct: Bought protein; also called 인간 Ang-2 단백질
T1 sequence: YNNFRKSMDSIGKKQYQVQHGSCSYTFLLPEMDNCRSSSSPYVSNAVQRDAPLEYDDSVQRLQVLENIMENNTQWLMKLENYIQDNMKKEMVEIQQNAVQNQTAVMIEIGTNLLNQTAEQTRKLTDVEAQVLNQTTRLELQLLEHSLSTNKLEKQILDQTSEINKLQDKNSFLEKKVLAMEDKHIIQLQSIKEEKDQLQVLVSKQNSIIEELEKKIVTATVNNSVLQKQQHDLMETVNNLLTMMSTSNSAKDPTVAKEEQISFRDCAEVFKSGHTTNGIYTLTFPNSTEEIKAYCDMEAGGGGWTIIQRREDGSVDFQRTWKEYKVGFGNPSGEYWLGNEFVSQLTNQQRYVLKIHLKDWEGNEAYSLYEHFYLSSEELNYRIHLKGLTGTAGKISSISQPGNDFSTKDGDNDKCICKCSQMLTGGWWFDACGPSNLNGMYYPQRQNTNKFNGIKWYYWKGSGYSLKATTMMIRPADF


How the values were obtained:
[1] = molecular target: Mutant Ang2 A449 (alanine), FLAG-tagged (human) (UniProt O15123); test: ELISA, antibody coated (1000nM), FLAG-Ang2 mutant 250ng, anti-FLAG-HRP, OD450 against native Ang2
[2] = molecular target: Mutant Ang2 D448 (alanine), FLAG-tagged (human) (UniProt O15123); test: as above
[3] = molecular target: Mutant Ang2 F469 (alanine), FLAG-tagged (human) (UniProt O15123); test: as above
[4] = molecular target: Mutant Ang2 I434 (alanine), FLAG-tagged (human) (UniProt O15123); test: as above
[5] = molecular target: Mutant Ang2 K468 (alanine), FLAG-tagged (human) (UniProt O15123); test: as above
[6] = molecular target: Mutant Ang2 N421 (alanine), FLAG-tagged (human) (UniProt O15123); test: as above
[7] = molecular target: Mutant Ang2 N467 (alanine), FLAG-tagged (human) (UniProt O15123); test: as above
[8] = molecular target: Mutant Ang2 P419 (alanine), FLAG-tagged (human) (UniProt O15123); test: as above
[9] = molecular target: Mutant Ang2 P452 (alanine), FLAG-tagged (human) (UniProt O15123); test: as above
[10] = molecular target: Mutant Ang2 Q418 (alanine), FLAG-tagged (human) (UniProt O15123); test: as above
[11] = molecular target: Mutant Ang2 S417 (alanine), FLAG-tagged (human) (UniProt O15123); test: as above
[12] = molecular target: Mutant Ang2 Y460 (alanine), FLAG-tagged (human) (UniProt O15123); test: as above
[13] = molecular target: T1, 재조합 hAng-2 (C-His, R&D Systems); test: SPR, BIAcore T100; hAng-2 (C-His) captured by anti-His antibody on CM5 chip, antibody flowed from 100 nM in 2-fold dilutions
hTie2-Fc (R&D Systems) = molecular target: T2, hTie2-Fc (R&D Systems) (human, UniProt Q02763 23-745); test: complex ELISA: Tie2-Fc coated, Ang2 0.25 ug/ml and 10D6 2 ug/ml added, anti-mouse IgG-HRP
T2 construct: Bought fusion protein, coated on the plate; also called hTie-2/Fc 융합 단백질; not shown: Fc of human IgG1
T2 sequence (Q02763 23-745 limits assumed): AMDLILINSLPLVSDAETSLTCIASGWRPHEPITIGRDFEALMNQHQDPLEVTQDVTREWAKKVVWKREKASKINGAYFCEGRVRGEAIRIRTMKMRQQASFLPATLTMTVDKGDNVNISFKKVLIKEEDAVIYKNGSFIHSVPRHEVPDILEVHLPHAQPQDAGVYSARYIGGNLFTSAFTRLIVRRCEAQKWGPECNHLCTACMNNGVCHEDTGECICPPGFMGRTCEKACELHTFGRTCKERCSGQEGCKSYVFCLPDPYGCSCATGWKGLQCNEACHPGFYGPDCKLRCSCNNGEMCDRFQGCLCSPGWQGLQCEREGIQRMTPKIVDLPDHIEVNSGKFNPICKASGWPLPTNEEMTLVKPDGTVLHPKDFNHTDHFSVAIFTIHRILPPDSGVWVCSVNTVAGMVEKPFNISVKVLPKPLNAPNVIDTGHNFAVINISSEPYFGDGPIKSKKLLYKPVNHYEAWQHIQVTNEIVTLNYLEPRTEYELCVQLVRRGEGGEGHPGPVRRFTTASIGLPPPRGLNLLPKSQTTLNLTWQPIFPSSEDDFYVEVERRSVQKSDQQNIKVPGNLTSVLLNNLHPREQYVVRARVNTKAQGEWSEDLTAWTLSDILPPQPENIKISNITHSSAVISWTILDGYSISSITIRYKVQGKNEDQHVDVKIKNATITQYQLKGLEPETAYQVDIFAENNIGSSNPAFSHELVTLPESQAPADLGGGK

Row | Binder | native Ang2와의 결합력에 대한 Mutant Ang2 와의 결합력(%) [1] | native Ang2와의 결합력에 대한 Mutant Ang2 와의 결합력(%) [2] | native Ang2와의 결합력에 대한 Mutant Ang2 와의 결합력(%) [3] | native Ang2와의 결합력에 대한 Mutant Ang2 와의 결합력(%) [4] | native Ang2와의 결합력에 대한 Mutant Ang2 와의 결합력(%) [5] | native Ang2와의 결합력에 대한 Mutant Ang2 와의 결합력(%) [6] | native Ang2와의 결합력에 대한 Mutant Ang2 와의 결합력(%) [7] | native Ang2와의 결합력에 대한 Mutant Ang2 와의 결합력(%) [8] | native Ang2와의 결합력에 대한 Mutant Ang2 와의 결합력(%) [9] | native Ang2와의 결합력에 대한 Mutant Ang2 와의 결합력(%) [10] | native Ang2와의 결합력에 대한 Mutant Ang2 와의 결합력(%) [11] | native Ang2와의 결합력에 대한 Mutant Ang2 와의 결합력(%) [12] | Kd [13] | binding result (hTie2-Fc (R&D Systems))
1 | SAIT-ANG2-AB-m10D6 (antibody, V domains shown, also called 10D6 항체; 10D6 anti-Ang2 항체) VH: DVQLQESGPGLVKPSQSLSLTCTVTGYSITSDYAWNWIRQFPGNKLEWMGYINYSGNTDYNPSLKSRSSITRDTSKNQFFLQLNSVTTGDTATYYCARGNFEGAMDYWGQGTSVTVSS VL: SIVMTQTPKFLLVSAGDRVTITCKASQSVSNDVAWYQQKPGQSPKLLIYYASNRYPGVPDRFTGSGYGTDFTFTISTVQAEDLAVYFCQQDYSSPWTFGGGTKLEIK | 97.9% | 105% | 109% | 109% | 110% | 109% | 107% | 41.1% | 102% | 38.9% | 101% | 103% | 8 nM | 
2 | Ang2 단백질(R&D systems) (ligand, also called 인간 Ang2 단백질 (R&D systems; 623-AN-025/CF)) YNNFRKSMDSIGKKQYQVQHGSCSYTFLLPEMDNCRSSSSPYVSNAVQRDAPLEYDDSVQRLQVLENIMENNTQWLMKLENYIQDNMKKEMVEIQQNAVQNQTAVMIEIGTNLLNQTAEQTRKLTDVEAQVLNQTTRLELQLLEHSLSTNKLEKQILDQTSEINKLQDKNSFLEKKVLAMEDKHIIQLQSIKEEKDQLQVLVSKQNSIIEELEKKIVTATVNNSVLQKQQHDLMETVNNLLTMMSTSNSAKDPTVAKEEQISFRDCAEVFKSGHTTNGIYTLTFPNSTEEIKAYCDMEAGGGGWTIIQRREDGSVDFQRTWKEYKVGFGNPSGEYWLGNEFVSQLTNQQRYVLKIHLKDWEGNEAYSLYEHFYLSSEELNYRIHLKGLTGTAGKISSISQPGNDFSTKDGDNDKCICKCSQMLTGGWWFDACGPSNLNGMYYPQRQNTNKFNGIKWYYWKGSGYSLKATTMMIRPADF |  |  |  |  |  |  |  |  |  |  |  |  |  | binds
